The results in this text go back to US20250019440A1 (Zymeworks, published 2025).

The target of one assay is CD3 on T cells (Homo sapiens (Human), UniProt P07766 23-207; P04234 22-171; P09693 23-182). In words: cell-based or functional assay.
The next assay has as its target T1, Human PD-L1 (human, UniProt Q9NZQ7 19-239).
T1 construct: Amine-coupled to a CM5 chip for SPR; also called recombinant human PD-L1
The experiment in a line: SPR, PD-L1 amine-coupled, variant as analyte.

In another assay the target is Human CD3 (recombinant) (human). In words: SPR, CD3 amine-coupled, variant as analyte, 1:1 model.
Sequence of Human CD3 (recombinant) (human) (chain, as listed by the source): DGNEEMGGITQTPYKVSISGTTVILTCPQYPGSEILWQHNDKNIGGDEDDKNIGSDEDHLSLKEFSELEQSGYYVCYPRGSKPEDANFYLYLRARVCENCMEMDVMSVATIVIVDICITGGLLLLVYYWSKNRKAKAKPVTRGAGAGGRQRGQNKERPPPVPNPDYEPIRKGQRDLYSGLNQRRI

Sequence of CD3 on T cells (P07766 23-207 limits assumed, chain 1 of 3): as the sequence (chain, as listed by the source) above
Sequence of CD3 on T cells (P04234 22-171 limits assumed, chain 2 of 3): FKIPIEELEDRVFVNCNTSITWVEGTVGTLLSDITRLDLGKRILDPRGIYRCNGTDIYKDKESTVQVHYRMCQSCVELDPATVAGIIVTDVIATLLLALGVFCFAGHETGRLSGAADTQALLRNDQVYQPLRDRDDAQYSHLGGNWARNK
Sequence of CD3 on T cells (P09693 23-182 limits assumed, chain 3 of 3): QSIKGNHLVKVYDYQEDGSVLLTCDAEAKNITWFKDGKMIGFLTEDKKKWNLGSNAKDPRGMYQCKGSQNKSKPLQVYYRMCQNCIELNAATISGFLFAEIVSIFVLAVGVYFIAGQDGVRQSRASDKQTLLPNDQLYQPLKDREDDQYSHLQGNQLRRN
T1 sequence (Q9NZQ7 19-239 limits assumed): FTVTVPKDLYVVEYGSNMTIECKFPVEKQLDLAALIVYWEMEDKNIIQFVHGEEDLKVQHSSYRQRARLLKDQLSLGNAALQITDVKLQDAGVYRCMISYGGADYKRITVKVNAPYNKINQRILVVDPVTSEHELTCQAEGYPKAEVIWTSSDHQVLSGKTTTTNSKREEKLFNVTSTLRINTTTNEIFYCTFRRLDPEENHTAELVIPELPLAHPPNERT

B1: v39001 (bispecific) (other)
heavy chain 1 (H1): EVQLVESGGGLVQPGGSLRLSCAASGVTFNYYGMSWIRQAPGKGLEWVASITSSGGRIYYPDSVKGRFTISRENTQKTLYLQMNSLRAEDTAVYYCTLDGRDGWVAYWGQGTLVTVSSASTKGPSVFPLAPSSKSTSGGTAALGCLVKDYFPEPVTVSWNSGALTSGVHTFPAVLQSSGLYSLSSVVTVPSSSLGTQTYICNVNHKPSNTKVDKKVEPKSCDKTHTCPPCPAPEAAGGPSVFLFPPKPKDTLMISRTPEVTCVVVSVSHEDPEVKFNWYVDGVEVHNAKTKPREEQYNSTYRVVSVLTVLHQDWLNGKEYKCKVSNKALPAPIEKTISKAKGQPREPQVYVYPPSRDELTKNQVSLTCLVKGFYPSDIAVEWESNGQPENNYKTTPPVLDSDGSFALVSKLTVDKSRWQQGNVFSCSVMHEALHNHYTQKSLSLSPGGGGGSGQVQLVESGGGLVQPGGSLRLSCSVSGIDLSSNPMIWVRQAPGKGLQYIGIIDTDGSTYYADWAKGRFTISKDSTTVYLQINSPRAEDTAVYYCARRLHGSSNGYYDDLWGQGTLVTVSSGGGGSGGGGSGGGGSGGGGSDGQMTQSPSSVSASVGDRVTITCQASQSIYSYLSWYQQKPGQRPKLLIYKASTLASGVPSRFSGSGSGTDFTLTISSVQPEDFATYYCQQGYTVTNVDKNTFGGGTKVEIK
light chain (L1): NFMLTQPHSVSESPGKTVTISCKRNTGNIGSNYVNWYQQHEGSSPTTIIYRNDKRPDGVSDRFSGSIDRSSKSASLTISNLKTEDEADYFCQSYSSGFIFGGGTKLTVLGQPKAAPSVTLFPPSSEELQANKATLVCLISDFYPGAVTVAWKADSSPVKAGVETTTPSKQSNNKYAASSYLSLTPEQWKSHRSYSCQVTHEGSTVEKTVAPTECS
heavy chain 2 (H2): NPPTFSPALLVVTEGDNATFTCSFSNTSESFVLNWYRMSPSNQTDALAAFPEDRSQPGQDARFRVTQLPNGRDFHMSVVRARRNDSGTYLCGAASLAPKAQIKESLRAELRVTEGGGGSGQVQLVESGGGLVQPGGSLRLSCSVSGIDLSSNPMIWVRQAPGKGLQYIGIIDTDGSTYYADWAKGRFTISKDSTTVYLQINSPRAEDTAVYYCARRLHGSSNGYYDDLWGQGTLVTVSSGGGGSGGGGSGGGGSGGGGSDGQMTQSPSSVSASVGDRVTITCQASQSIYSYLSWYQQKPGQRPKLLIYKASTLASGVPSRFSGSGSGTDFTLTISSVQPEDFATYYCQQGYTVTNVDKNTFGGGTKVEIKAAEPKSSDKTHTCPPCPAPEAAGGPSVFLFPPKPKDTLMISRTPEVTCVVVSVSHEDPEVKFNWYVDGVEVHNAKTKPREEQYNSTYRVVSVLTVLHQDWLNGKEYKCKVSNKALPAPIEKTISKAKGQPREPQVYVLPPSRDELTKNQVSLLCLVKGFYPSDIAVEWESNGQPENNYLTWPPVLDSDGSFFLYSKLTVDKSRWQQGNVFSCSVMHEALHNHYTQKSLSLSPG
Turning to B1, in the assay with CD3 on T cells, the “EC50 (read off the curve); hybrid PD-1/PD-L1 reporter gene assay, delta RLU, PD-1+ Jurkat T cells with SNU-620 cells, top right graph” value is around 50 pM.

B2: v39005 (bispecific) (other)
heavy chain 1 (H1): EVQLVESGGGLVQPGGSLRLSCAASGVTFNYYGMSWIRQAPGKGLEWVASITSSGGRIYYPDSVKGRFTISRENTQKTLYLQMNSLRAEDTAVYYCTLDGRDGWVAYWGQGTLVTVSSASTKGPSVFPLAPSSKSTSGGTAALGCLVKDYFPEPVTVSWNSGALTSGVHTFPAVLQSSGLYSLSSVVTVPSSSLGTQTYICNVNHKPSNTKVDKKVEPKSCDKTHTCPPCPAPEAAGGPSVFLFPPKPKDTLMISRTPEVTCVVVSVSHEDPEVKFNWYVDGVEVHNAKTKPREEQYNSTYRVVSVLTVLHQDWLNGKEYKCKVSNKALPAPIEKTISKAKGQPREPQVYVYPPSRDELTKNQVSLTCLVKGFYPSDIAVEWESNGQPENNYKTTPPVLDSDGSFALVSKLTVDKSRWQQGNVFSCSVMHEALHNHYTQKSLSLSPGGGGGSGQVQLVESGGGLVQPGGSLRLSCSVSGIDLSSNPMIWVRQAPGKGLQYIGIIDTDGSTYYADWAKGRFTISKDSTTVYLQINSPRAEDTAVYYCARRLHGSSNGYYDDLWGQGTLVTVSSGGGGSGGGGSGGGGSGGGGSDGQMTQSPSSVSASVGDRVTITCQASQSIYSYLSWYQQKPGQRPKLLIYKASTLASGVPSRFSGSGSGTDFTLTISSVQPEDFATYYCQQGYTVTNVDKNTFGGGTKVEIK
light chain (L1): NFMLTQPHSVSESPGKTVTISCKRNTGNIGSNYVNWYQQHEGSSPTTIIYRNDKRPDGVSDRFSGSIDRSSKSASLTISNLKTEDEADYFCQSYSSGFIFGGGTKLTVLGQPKAAPSVTLFPPSSEELQANKATLVCLISDFYPGAVTVAWKADSSPVKAGVETTTPSKQSNNKYAASSYLSLTPEQWKSHRSYSCQVTHEGSTVEKTVAPTECS
heavy chain 2 (H2): QVQLVESGGGLVQPGGSLRLSCSVSGIDLSSNPMIWVRQAPGKGLQYIGIIDTDGSTYYADWAKGRFTISKDSTTVYLQINSPRAEDTAVYYCARRLHGSSNGYYDDLWGQGTLVTVSSGGGGSGGGGSGGGGSGGGGSDGQMTQSPSSVSASVGDRVTITCQASQSIYSYLSWYQQKPGQRPKLLIYKASTLASGVPSRFSGSGSGTDFTLTISSVQPEDFATYYCQQGYTVTNVDKNTFGGGTKVEIKAAEPKSSDKTHTCPPCPAPEAAGGPSVFLFPPKPKDTLMISRTPEVTCVVVSVSHEDPEVKFNWYVDGVEVHNAKTKPREEQYNSTYRVVSVLTVLHQDWLNGKEYKCKVSNKALPAPIEKTISKAKGQPREPQVYVLPPSRDELTKNQVSLLCLVKGFYPSDIAVEWESNGQPENNYLTWPPVLDSDGSFFLYSKLTVDKSRWQQGNVFSCSVMHEALHNHYTQKSLSLSPGGGGGSGDRPWNPPTFSPALLVVTEGDNATFTCSFSNTSESFVLNWYRMSPSNQTDALAAFPEDRSQPGQDARFRVTQLPNGRDFHMSVVRARRNDSGTYLCGAASLAPKAQIKESLRAELRVTE
For the molecule B2, in the assay with CD3 on T cells, the “EC50 (read off the curve); hybrid PD-1/PD-L1 reporter gene assay, delta RLU, PD-1+ Jurkat T cells with SNU-620 cells, bottom graph” value is around 50 pM.

B3: v38424 (other)
heavy 1: EVQLVESGGGLVQPGGSLRLSCAASGVTFNYYGMSWIRQAPGKGLEWVASITSSGGRIYYPDSVKGRFTISRENTQKTLYLQMNSLRAEDTAVYYCTLDGRDGWVAYWGQGTLVTVSSASTKGPSVFPLAPSSKSTSGGTAALGCLVKDYFPEPVTVSWNSGALTSGVHTFPAVLQSSGLYSLSSVVTVPSSSLGTQTYICNVNHKPSNTKVDKKVEPKSCDKTHTCPPCPAPEAAGGPSVFLFPPKPKDTLMISRTPEVTCVVVSVSHEDPEVKFNWYVDGVEVHNAKTKPREEQYNSTYRVVSVLTVLHQDWLNGKEYKCKVSNKALPAPIEKTISKAKGQPREPQVYVYPPSRDELTKNQVSLTCLVKGFYPSDIAVEWESNGQPENNYKTTPPVLDSDGSFALVSKLTVDKSRWQQGNVFSCSVMHEALHNHYTQKSLSLSPGGGGGSGDRPWNPPTFSPALLVVTEGDNATFTCSFSNTSESFVLNWYRMSPSNQTDALAAFPEDRSQPGQDARFRVTQLPNGRDFHMSVVRARRNDSGTYLCGAASLAPKAQIKESLRAELRVTE
light: NFMLTQPHSVSESPGKTVTISCKRNTGNIGSNYVNWYQQHEGSSPTTIIYRNDKRPDGVSDRFSGSIDRSSKSASLTISNLKTEDEADYFCQSYSSGFIFGGGTKLTVLGQPKAAPSVTLFPPSSEELQANKATLVCLISDFYPGAVTVAWKADSSPVKAGVETTTPSKQSNNKYAASSYLSLTPEQWKSHRSYSCQVTHEGSTVEKTVAPTECS
heavy 2: QVQLVESGGGLVQPGGSLRLSCSVSGIDLSSNPMIWVRQAPGKGLQYIGIIDTDGSTYYADWAKGRFTISKDSTTVYLQINSPRAEDTAVYYCARRLHGSSNGYYDDLWGQGTLVTVSSGGGGSGGGGSGGGGSGGGGSDGQMTQSPSSVSASVGDRVTITCQASQSIYSYLSWYQQKPGQRPKLLIYKASTLASGVPSRFSGSGSGTDFTLTISSVQPEDFATYYCQQGYTVTNVDKNTFGGGTKVEIKAAEPKSSDKTHTCPPCPAPEAAGGPSVFLFPPKPKDTLMISRTPEVTCVVVSVSHEDPEVKFNWYVDGVEVHNAKTKPREEQYNSTYRVVSVLTVLHQDWLNGKEYKCKVSNKALPAPIEKTISKAKGQPREPQVYVLPPSRDELTKNQVSLLCLVKGFYPSDIAVEWESNGQPENNYLTWPPVLDSDGSFFLYSKLTVDKSRWQQGNVFSCSVMHEALHNHYTQKSLSLSPG
notes: CD3 Fab x Cldn18.2 scFv Fc, attenuated (KO) PD-1 attached to HC1 (C-term)
Turning to B3, the binding result with Human PD-L1 is on record as “no binding”. In addition, in the assay with Human CD3 (recombinant), the dissociation constant Kd is 37 nM.
